# Source: the DeepSol protein solubility set
# Assay: soluble on expression in E. coli; label from the status in PepcDB or PDB records
row,Sequence,soluble on expression in E. coli
1,MDEDTRLSRYLYLTDREHINVDSIKQLCKISDPNACYRCGCTALHEYFYNYRSVNGKYKYRYNGYYQYYSSSDYENYNEYYYDDYDRTGMNSESDNISIKTEYENEYEFYDETQDQSTQLVDYDIKLKTNEDDFVDEFYGYDRSVGVHDYIDVSINKVVYGRESHVRWRDIWQEHNDGVYSIGKECIDNIYEDRHTVDEFYKIDSVSDVDDAEHISQITNDVSTQTWEKKSELDRYMEMYPRHRYGKHSVFKGFSDKVRKNDLDMNVVKELLSNGASLTIKDSSNKDPIAVYFRRTIMNLEMIDIINKHTTIYERRYIVHSYLKNYRNFDYPFFRKLVLTNKHCLNNYYNISDSKYGTPLHILASNKKIITPNYMKLLVYNGNDINARGEDTQMRTPLHKYLCKFVYHNIEYGIRYYNEKIIDAFIELGADLTIPNDDGMIPVVYCIHSNAEYGYNNITNIKIIRKLLNLSRHASHNLFRDRVMHDYISNTYIDLECLDIIRSLDGYDINCYFEGRTPLHCAIQYNFTQIAEYLLDRGADISLKTDDGKTVFDLSLCSYIPLKWTSFLISRLPPKSVICSLTNHIIDYVLTNNRRIIWQSQMINKYVLLLDPSFYYRFRNAIENKLDQYNNRYNMFEHDRDVNEKYGKVLHDLDTYIKDVQVLKSTSITNNITLYDTIINNKSEFPIRRANDKQLINLIKSNTYHNLIEKVIKNTLEKYTLTNIVLEYMISSQSQSQSSYLSRIPNEILLEILYKLDMYDLRNLYTRYMRENDITEYHIENTRSVSTQT,not soluble
2,MDEEASRTARESLELVFRMSNILDTGLDRHTLSVLIALCDLGVNPEALATVVKELRRESIPDSVTTTPSIH,soluble
3,MDEKKLFENFQLTFGRMISPFEIEDIQKWIHEDNMPIEVVNLALREAVENNKISWKYINKILVDWYKSGDTTVEKVRDRLQRFDDSKKQRSVTTSNVPSWSNPDYKEPDLEEFALGSMDGIEDGSGDF,not soluble
4,MDEQAVSTSMKTVYIRIYTSVLYTSYTKPGNWSAVDRSAWSVSCSNVYADDDAKYGAHLAIDGEINTTWFTWGVANAGECWWNTVLDRPVTLTGFSVTKQSAYGSGYNLRSAEIKVRKEGETEWVTYPRVLTFRNFKGADPQYAAIEPPIPNVKEFRINCLTPDNYTGFAEINLYVKQLEHHHHHH,soluble
5,MDEQVIKKVVEDVLKKVGIEQKEENKANRGEPVITNPGLTEFVGTALGDTIGLVIANVDASLHEKMGIDPKYRSIGIIGGRTGAGPQIMAADEAVKATNTEVVAIELPRDTKGGAGHGNLIIFGAEEVSDARRAVEVALKELRRTFGDVYVNEAGHLEFQYTARASYALQKAFGAPLGKAFGLIVGAPAAIGVLCCDTAVKAAEVEVIGYASPAKGTSMTNEAILFISGDSGAVRQAIIAAREVGLKLLSTLGEAPKSLSGEPYI,not soluble
6,MDERTELLKRIEELEEKLRQCQQREQELEALIEEYNEVMKKQFQVFDDFFEKLGTTKMIDPLTRVYAKDHFLRLLSYQHQRAFEENTPYTIFFVKTKVSKNEREKALMKIGKILKECVRVPLDSVGRYSDDTFALFVIGVGKETAPNIEERIKNHIESIGGIEYSIAYKSYPEDFMDLEKAILDLEKAVA,not soluble
7,MDFKQYSPEELKECSMIEVVHSVLGDKKQATTFNELVQEIAQVLGLSQEQVNAKIAQFYTDLNIDGRFINLGENRWGLRSWYPYEQIDEEILPQPKPKKKRKVEEDGFDDYIDEDEDDFDDVDGNEDEDDDVEDLDKVLEDEDGDDDDLDDLDEDEDDFAEEELEYDETEEEEEEEL,not soluble
8,MDGGFVRVCLLASGSKGNSLFVESDGTRVLIDAGLSAREIVRRLAVIEVEPADLDGLFISHEHVDHVRGVGVLARKYRLPVHVSYPTHHEVREGFGDAPVVEFESGYSFGFRDLLIDPFPITHDACDPVGFTIESKEGKVGIATDLGTATRLVADKLKRCRVLVLESNHDEEMLMGGPYPWHLKQRIKSRHGHLSNNDSAALLAEVLHPGLEGLFLAHLSEVNNDPAVAKEVAENLLVAQTTCSPRLIVGDQYRPSETLTLLEHHHHHH,soluble
9,MDGLDYFEPNPDYRVAATVEVDDSDETITMETTAEGERLYERVARLTFEVPDASDNRDEHTLVAYQRVDQRGDGSLFVPFRDKTTGQQTYPAGRYMELHYEGDLEDGATVPLDFNLAYNPFCAYSDAYECPLPPQENWLEIVVPAGERDDQLEHHHHHH,soluble
10,MDGTIKEALSVVSDDQSLFDSAYGAAAHLPKADMTASGSPDYGQPHKINPLPPQQEWINQPVRVNVKREYDHMNGSRESPVDCSVSKCSKLVGGGESNPMNYNSYMDEKNGPPPPNMTTNERRVIVPADPTLWTQEHVRQWLEWAIKEYSLMEIDTSFFQNMDGKELCKMNKEDFLRATTLYNTEVLLSHLSYLRESSLLAYNTTSHTDQSSRLSVKEDPSYDSVRRGAWGNNMNSGLNKSPPLGGAQTISKNTEQRPQPDPYQILGPTSSRLANPGSGQIQLWQFLLELLSDSANASCITWEGTNGEFKMTDPDEVARRWGERKSKPNMNYDKLSRALRYYYDKNIMTKVHGKRYAYKFDFHGIAQALQPHPTESSMYKYPSDISYMPSYHAHQQKVNFVPPHPSSMPVTSSSFFGAASQYWTSPTGGIYPNPNVPRHPNTHVPSHLGSYY,soluble
11,MDHENLMKYLEEFRSIRFQPDFQKVDAERNVRYCEITDFPISNISFELLETGVSQQWRNCDQNLFNEYLKTYKNGGYSQFEDLLFKIWGYSEEKERFDLPALKSFYRKMSEIVGEDEVLEKLARLVRITKSACEVLPEKIYRLVGDIESATFSHIQCASLIAWMFFSDTPRLSFIIILQKTTCVAVEKLKFLFTYFDKMSIDPPIGAVSFRKMRITHKQYLENWKLRETNLLPDVQVFDKMSIEETALCTQIDFANKRLGGGVLKGGAVQEEIRFMMCPEMMVAILLNDVTQDLEAISIVGAYVFSSYTGYSNTLKWAKITPKHSAQNNNSFRDQFGRLQTETVAIDAVRNAGTPLECLLNQLTTEKLTREVRKAAIGFLSAGDGFSKIPVVSGWWGCGAFRGNKPLKFLIQVIACGISDRPLQFCTFGDTELAKKCEEMMTLFRNNNVRTGQLFLIINSIGPPLNYSEQYVFDAIRAKINSTKA,not soluble
12,MDIFYKKIKANVTPEVLAQLHSKKIILESTNQQQTKGRYSVVIFDIYGTLTLDNDVLSVSTLKESYQITERPYHYLTTKINEDYHNIQDEQLKSLPFISGYVGTCSFDLVRHEFPKLQSIQLEDHKQHDVRLYMVEQVYVFDHYKDELYIIATNQFSNSTKSDLENRVIKSIEDLTKIQPFMPTQDFDFKTKEIQSNISEERFIEMIQYFKEKITEGDMFQVVPSRIYKYAHHASQHLNQLSFQLYQNLKRQNPSPYMYYLNIDQPYIVGSSPESFVSVKDQIVTTNPIAGTIQRGETTQIDNENMKQLLNDPKECSEHRMLVDLGRNDIHRVSKIGTSKITKLMVIEKYEHVMHIVSEVTGKINQNLSPMTVIANLLPTGTVSGAPKLRAIERIYEQYPHKRGVYSGGVGYINCNHNLDFALAIRTMMIDEQYINVEAGCGVVYDSIPEKELNETKLKAKSLLEVSP,not soluble
13,MDIKINDITLGNNSPFVLFGGICVLESLDSTLQTCAHYVEVTRKLGIPYIFKASFDKANRSSIHSYRGVGLEEGLKIFEKVKAEFGIPVITDVHEPHQCQPVAEVCDVIQLPAFLARQTDLVVAMAKTGNVVNIKKPQFLSPSQMKNIVEKFHEAGNGKLILCERGSSFGYDNLVVDMLGFGVMKQTCGNLPVIFDVTHSLQTRDAGSAASGGRRAQALDLALAGMATRLAGLFLESHPDPKLAKCEGASALPLHLLEDFLIRIKALDDLIKSQPILTIE,soluble
14,MDILVLRVDVPKEGFARKLGAHETVFAADDGAVGKVQQLVEVLLRHERDFDEADGCRLKNIAVVLQGILRNNAALFEAVDDLRPRQQQCHRAACLSPHFQPLCPNIAPIAEKQPFGGVFFGQHQPLSQGFSIETDGFAVITFAYQPAAFFAETHKPKIFLNTLLRRRHQMQPFIAFLRAQIFPIQPKRLVSADNVQHIFGQVAGKSFDDDIGNRRGINICRIGMPSADMNILMNAGNIGQIRAKRTQGGHIVRPQMHLPTEFAVQNTGEPPRNADVAEIVDDLAKNPTDKRRSIHRNNGNGLKRAKIVEQIHNQQNNRNKQQHSLTFQIKLLFQMMLDGVEKDEFKQKRRFAGKDDAVDQMLEFVFGRIGGENGKRRQRDEADGKPADKQVSGHCKAFKKAKRHYRPKRTPCLTDAPEMPSEALPQENAAPPNL,not soluble
15,MDIRLEDEQIKVGDTLLPGVYEGMEVTGDVRSDEEELQSGKRVVHYSYNPTTIRLNLKLLNDADGTPEEKLATIQKVFRPPSQTKPPTYKLVSSHAKARGIGQVMFIRFRSQDTNASDIITVSLEFQETESTTVSVQKVKANTGSGQQYTVKKGDTLWALAKKFNTTVEAIAKANNIANVNLIYVGQKLTIPAASGNASSVASSSAAVDDAEAPKVR,not soluble
16,MDISVIDATKVNTETGLHIGESNAPVKMIEFINVRCPYCRKWFEESEELLAQSVKSGKVERIIKLFDKEKESLQRGNVMHHYIDYSAPEQALSALHKMFATQDEWGNLTLEEVATYAEKNLGLKEQKDATLVSAVIAEANAAHIQFVPTIIIGEYIFDESVTEEELRGYIEK,soluble
17,MDITKADEPVIDEKDYPKPSDAELKAKLTPLQYSVTQNKHTERSFSNEYWDNFQPGIYVDITTGEPVFSSNDKFESGCGWPSFTKPIIKDVVHYETDNSFNMQRTEVLSRAGNAHLGHVFDDGPKDKGGLRYCINSASIKFIPLAEMEKAGYGYLIQSIKK,not soluble
18,MDKEKVLDKIKKCLALGRSVNEHEAAQALRQAQALMEKYKVNAEDIALSKVSEQKADRKMAFKLAGWQWGVANMIADIFGCKSYQRGKTMMFYGIGNRAETSAYAFDVVYRQISADRRKFLKTCRAGKPSHRTYLADRFCGGWIASAWETVKKFEMSDEEKAIMDGYKKKEYPDMAEARTRDAKSSILQGSKMEYEALTRGMESGKQVKLHYAVNGTGFVKQIGGQT,not soluble
19,MDKEVTNIVLKRHDSIVKGAQDDREYRGLELTNGIRVLLVSDPTTDKSAAALDVKVGHLMDPWELPGLAHFCEHMLFLGTAKYPTENEYSKFLTDNAGHRNAVTASDHTNYHFDVKPDQLRGALDRFVQFFLSPQFTESATEREVCAVDSEHSNNLNNDLWRLSQVDRSLSKPGHDYAKFGTGNKKTLLEEARKKGVEPRDALLQFYKKWYSSNIMTCCIIGKESLDVLQSHLKTLEFDTIENKKVERKVWNENPYGPEQLGKRIDRKFFAHLIRHKGPGSLLVELKRLGWVNSLKSDSNTIAAGFGILNVTMDLSTGGLENVDEIIQLMLNYIGMLKSFGPQQWIHDELADLSDVKFRFKDKEQPMKMAINIAASLQYIPIEHILSSRYLLTKYEPERIKELLSTLTPSNMLVRVVSQKFKEQEGNTNEPVYGTEMKVTDISPEKMKKYENALKTSHHALHLPEKNEYIATNFGQKPRESVKNEHPKLISDDGWSRVWFKQDDEYNMPKQETKFALTTPIVSQNPRISLISSLWLWCFCDILSEETYNAALAGLGCQFELSPFGVQKQSTDGREAERHASLTLHVYGYDEKQPLFVKHLTSCMINFKIDRTRFEVLFESLKRTLTNHAFSQPYLLTQHYNQLLIVDKVWSKEQLLAVCDSVTLENVQGFAREMLQAFHMELFVHGNSTEKEAIQLSKELMDILKSAAPNSRPLYRNEHNPRREFQLNNGDEYIYRHLQKTHDAGCVEVTYQIGVQNKYDNAVVGLIDQLIKEPVFDTLRTNEALGYIVWTGCRFNCGAVALNIFVQGPKSVDYVLERIEVFLESVRKEIIEMPQDEFEKKVAGMIARLEEKPKTLSNRFKRFWYQIECRQYDFARREKEVKVLKSIGKDDVIALFDKKIRKNAVERRKLVVLVHGKIDDQETLNRIIKKNVESGKKEKEILNLDQLRQSLPVYDLPNAAIDLKPIGVDPLEQKESATVQ,not soluble
